± gives the half width of the 95% confidence interval.
Assays:
[1] = folding stability dG unfold (combined trypsin and chymotrypsin); higher = more stable
Outline: (§1)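 Digests were run with trypsin and chymotrypsin at 11 concentrations in threefold dilutions, plus a no-protease condition, on designed mini-proteins in a PA-tagged cDNA display construct. The mini-proteins were under 80 residues, had no cysteine, and were kept only when AlphaFold2 dimer inter-PAE was above 15. After sequencing, Bayesian fitting of the counts gave K50, from which unfolding free energy was derived against a sequence-predicted unfolded-state K50 and a shared folded-state K50, per protease or combined.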

[2] = folding stability dG unfold from chymotrypsin proteolysis; higher = more stable
Outline: as §1

[3] = folding stability dG unfold from trypsin proteolysis; higher = more stable
Outline: as §1

Sequence	folding stability dG unfold [1]	folding stability dG unfold [2]	folding stability dG unfold [3]
SAGGPKPGEKWIARTKEGLVPITLEGDKVTITDALTGKKTVIPIPGASLEEIKELLLSEPDYEVYPESAGGS [r16_583_JUSTAS]	-0.404 ± 0.19 kcal/mol	-0.737 ± 0.32 kcal/mol	-0.603 ± 0.37 kcal/mol
SAGGPKVVRIRYTMPPDQARDFIEELFGRPMSADDIADKLPPGFKVGIRAHPNPNGHVTFEIWIKLPDSAGG [r13_869_TrROS]	2.93 ± 0.11 kcal/mol	3.068 ± 0.021 kcal/mol	2.37 ± 0.062 kcal/mol
SAGGPLEVTLVESETTFLPEGKVVTREVTRLPDDTILVTTYTTTIDPNSGTTTTTSETVVLPAGAALSAGGS [r16_639_JUSTAS]	1.49 ± 0.032 kcal/mol	0.627 ± 0.068 kcal/mol	2.11 ± 0.046 kcal/mol
SAGGPLTLEDLKNMPPGEKLEFTFGGYTYEVEIYKNDNGPPYITVKQRDPHDGEPVEEKRVPADDIVSAGGS [r16_763_TrROS]	1.58 ± 0.058 kcal/mol	1.92 ± 0.026 kcal/mol	0.956 ± 0.032 kcal/mol
SAGGPLTLEFTLPNGDEVGDVTVEPLPDDSYIVTVVAEDKDRPGVYYVSLVRIPPTDRTLEVVSGPVYSAGG [r13_370_TrMRF]	1.2 ± 0.064 kcal/mol	1.24 ± 0.12 kcal/mol	1.12 ± 0.02 kcal/mol
SAGGPLTLTIPLPDGTTITVTLTRNPDTPSYTATADITFPDGSVVRIHATINSDGSITIHSVEVFPASAGGS [r16_213_TrMRF]	5.19 ± 0.18 kcal/mol	5.06 ± 0.24 kcal/mol	4.51 ± 0.57 kcal/mol
SAGGPMPLDDIEIHNVWPYKGEYWMVMITVPNNGKEIMIPWDDLDELLENDPNVEVDVMPIKPGQPMSAGGS [r16_61_TrROS]	1.25 ± 0.083 kcal/mol	1.21 ± 0.061 kcal/mol	1.12 ± 0.04 kcal/mol
SAGGPMRRVKVEIKDPDGGKIEIDDVYVPDNSVWAKIFLPDLGREIPFPFDTPDQAVEWIKDFVLQLSAGGS [r16_736_TrROS]	0.929 ± 0.29 kcal/mol	1.15 ± 0.21 kcal/mol	0.482 ± 0.099 kcal/mol
SAGGPMYIVIKVEVWNPDNGKKREINIVIPIPPGMTPEQMLEKAKELARTIAEENGYEVRIDEIHIFSAGGS [r8_312_TrROS]	3.03 ± 0.098 kcal/mol	2.862 ± 0.02 kcal/mol	3.13 ± 0.087 kcal/mol
SAGGPNVPIRIRVTIERQDPDGEPKDFEFPIEYPMPPDDPEQAKEQIEELAESIAEKHGYKVEIEIEPSAGG [r13_853_TrROS]	-0.627 ± 0.55 kcal/mol	-0.45 ± 0.29 kcal/mol	-0.664 ± 0.18 kcal/mol
SAGGPPIKKAEIKEIYPEKGIINAIIELEDIPKPYEAIGIITDEKEGIIFVEIINPEGGPPLYFTIKASAGG [r13_337_TrMRF]	0.972 ± 0.22 kcal/mol	1.09 ± 0.1 kcal/mol	0.928 ± 0.033 kcal/mol
SAGGPPIRIKVELWDPNGKEYTHTFPFGEPLDQILDNASKQFGLPLRVEDIEYDPDGMITITIRIPDSAGGS [r8_285_TrROS]	1.8 ± 0.1 kcal/mol	1.77 ± 0.027 kcal/mol	1.75 ± 0.036 kcal/mol
SAGGPPRTVTVFVNDPDGNTYTFTFSDSVPLSTVVANVSKTLGVPLTVDSVTVHPDGTVTITVTNPGSAGGS [r8_285_TrMRF]	4.96 ± 0.062 kcal/mol	5 ± 0.06 kcal/mol	4.57 ± 0.14 kcal/mol
SAGGPPVTLTLTLTFTETRTVRNPATGETVTVEKVTLTLTITLEPGMSKEQLEALLKELRELFPSLESAGGS [r8_306_TrROS_Hall]	5.11 ± 0.29 kcal/mol	5.15 ± 0.28 kcal/mol	3.53 ± 0.25 kcal/mol
SAGGPPWVRVVDVRIEPVEDGGERRITLTFPPDVTLEEVRERVREMLPPGAEAELTVERVEVRPVLASAGGS [r16_393_JUSTAS]	1.49 ± 0.04 kcal/mol	1.56 ± 0.019 kcal/mol	1.27 ± 0.016 kcal/mol
SAGGPRVEPLPLRVTYEDGVPPREVTVPLLAVTALDPETGEPVTFVNPGSLEVLAALLPPSVVSFDFSAGGS [r16_522_TrMRF]	0.755 ± 0.05 kcal/mol	0.703 ± 0.066 kcal/mol	0.714 ± 0.012 kcal/mol

Sequence	folding stability dG unfold [1]	folding stability dG unfold [2]	folding stability dG unfold [3]
SAGGPRVFRLTYLDPETGEPRELRFSLPVPPAPDFISVYVNVPPELARRIAELLRELYPDKPVLVHRSAGGS [r8_437_TrMRF]	2.68 ± 0.049 kcal/mol	2.971 ± 0.019 kcal/mol	2 ± 0.036 kcal/mol
SAGGPSVDIDPRLNEDGTPYVLATLHIVPVHSDGSSSSADIPVVFDSLDDLLAFVKAISPGSAKVSLSAGGS [r16_652_TrMRF]	0.959 ± 0.058 kcal/mol	1.27 ± 0.083 kcal/mol	0.42 ± 0.067 kcal/mol
SAGGPTIRLLVLPNKAEEVAEAIKKEFGAEVKILRVEPYPLPGPDGKVLKPVYLVEIEVKVKDPRLPLSAGG [r13_943_TrMRF]	1.29 ± 0.17 kcal/mol	1.3 ± 0.14 kcal/mol	1.17 ± 0.051 kcal/mol
SAGGPVETPGPHPLRPVPVVEPKKVVVTYPDLSPEEAAALAAELEAQGATTSFDPATGTLTVTLTGLSAGGS [r16_765_JUSTAS]	2.58 ± 0.072 kcal/mol	3 ± 0.038 kcal/mol	1.12 ± 0.043 kcal/mol
SAGGPWVVIKIRTPNKPIEIPIPGFKIENTGDSMTIVFPPDDPDQVLDALEKASPGIKITKIEVVKPSAGGS [r8_490_TrROS]	0.575 ± 0.1 kcal/mol	0.318 ± 0.12 kcal/mol	0.65 ± 0.06 kcal/mol
SAGGPYEFWFTITIDYPDLTPKQAVEEARKILRKLGFEITDIPVQVDPDPGWITVMARITIRPPEDASAGGS [r16_287_TrROS]	3.58 ± 0.16 kcal/mol	3.98 ± 0.044 kcal/mol	3.31 ± 0.063 kcal/mol
SAGGPYYEWEIKLPDNKTISITMRRNPENGRPQHTVTIHDPEKGKPVKEHPFDSPEEAEELIEEGLLSAGGS [r8_450_TrROS]	0.287 ± 0.35 kcal/mol	0.445 ± 0.21 kcal/mol	-0.0517 ± 0.16 kcal/mol
SAGGRAEEFATFLAELLRALLPPGEKVRATAVVTPEGVVVRVEHPLGFVAEALVKGDKLVRLELRPVSAGGS [r8_287_TrMRF]	3.6 ± 0.11 kcal/mol	3.82 ± 0.09 kcal/mol	3.17 ± 0.13 kcal/mol
SAGGRAVLLATFTTPDGSLVLVYEDPATGRVLVVSFDPSTGRVSVLRLRRVPNTGDLFIEDRATFPLSSAGG [r19_249_TrMRF]	3.97 ± 0.12 kcal/mol	4.36 ± 0.12 kcal/mol	3.51 ± 0.059 kcal/mol
SAGGRIEVRPLEGSGAVLVRILDPELRKKLEEKFPDVTEILFPVEGAEDIPLEELRDRAIKEIEELIDSAGG [r19_298_TrMRF]	0.956 ± 0.059 kcal/mol	0.187 ± 0.056 kcal/mol	1.4 ± 0.051 kcal/mol
SAGGRKITINWNPNSGEIKVKIIWPDGEKEELPIPVPEGHDSPRQFADELKDNAQERFGEPVKIEITSAGGS [r8_166_TrROS]	-0.492 ± 0.4 kcal/mol	-0.793 ± 0.21 kcal/mol	-0.223 ± 0.15 kcal/mol
SAGGRLVRIKVDIYSPGDGEPHEFEFLLHVDANGSVEIYFPNGKRIRIPPNMKVKIKDIEVLDPDQISAGGS [r16_223_TrROS]	3.17 ± 0.14 kcal/mol	3.45 ± 0.11 kcal/mol	2.56 ± 0.089 kcal/mol
SAGGRVRLEEVEILPPLEDPEDNPDRPLLLLRVRARVEYDTPEGPREEERELVLVVSPERLEEALEALSAGG [r13_149_TrMRF]	1.37 ± 0.16 kcal/mol	1.62 ± 0.13 kcal/mol	0.794 ± 0.075 kcal/mol
SAGGRYYFVRIEIYNPNNGRPFDIMIPFPGMPAEQVKEQVKEIADELAKQHGMDVKVKVEIQPLPPDSAGGS [r8_185_TrROS]	1.95 ± 0.17 kcal/mol	2.06 ± 0.07 kcal/mol	1.73 ± 0.092 kcal/mol
SAGGSAAMVPPEELAERLAEELAAKEGREVTEVTVEVLDPERGVVRVTVTFRSPEGLSTRTVVVDLSAGGSA [r15_32_JUSTAS]	3.21 ± 0.049 kcal/mol	3.191 ± 0.026 kcal/mol	3.24 ± 0.057 kcal/mol

— the supplement of paper PMC12764529
